The results in this text go back to patent US20090271892A1, “LYSOPHOSPHATIDIC ACID ACYLTRANSFERASE GENES AND USES THEREOF” (priority 2006, published 2009).

What is called Km is the concentration of substrate that gives half-maximal velocity. What is called Vmax is the rate approached at saturating substrate.

The target of data set [1] is T1, Litchi sinensis LPAAT (LsLPAAT, pEW108), mutant of SEQ ID No 2 in the last C-terminal amino acids, SEQ ID No 1 (Litchi chinensis, UniProt A0A346D9Z1).
T1 construct: araBAD promoter, E. coli JC201 microsomes
T1 sequence (A0A346D9Z1 entry or part of it, change not shown): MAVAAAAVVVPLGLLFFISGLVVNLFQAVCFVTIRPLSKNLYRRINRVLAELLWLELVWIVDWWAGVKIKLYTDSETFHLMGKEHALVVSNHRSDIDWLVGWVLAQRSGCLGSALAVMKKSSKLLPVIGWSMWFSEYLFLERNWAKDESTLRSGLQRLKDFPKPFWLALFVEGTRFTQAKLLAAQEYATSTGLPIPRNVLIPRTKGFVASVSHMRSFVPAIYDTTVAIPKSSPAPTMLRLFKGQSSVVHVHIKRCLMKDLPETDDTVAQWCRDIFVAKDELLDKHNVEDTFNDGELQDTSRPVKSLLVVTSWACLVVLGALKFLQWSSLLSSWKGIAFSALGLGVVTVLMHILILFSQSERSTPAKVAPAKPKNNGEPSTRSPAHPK
In words: LPAAT assay, kinetic parameters with C18:1-CoA, E. coli JC201 microsomes. Type of data set: biochemical. Particulars: C18:1-CoA 0-50 μM, 10 min, 30° C., pH7.5, N = 4. From the text:
(§1) FIG. 1: Kinetics of phosphatidic acid synthesis using ^14C-C18:1-CoA on ^3H-LPA as substrates and Brassica napus (SEQ ID No 5) and Litchi microsomal (SEQ ID NO 1) LPAATs as enzymes. Duplicate measurements for one experiment are shown.
The inventors have identified one putative Lysophosphatidic Acid-Acyl Transferase from Lychee (SEQ ID No 2). They also have obtained a mutated protein derived from this protein, which is depicted as SEQ ID No 1.
Plasmids pEW108 and 117 comprising genes coding for SEQ ID No 1 and SEQ ID No 2 respectively under the control of the araBAD promoter (Guzman, L-M. et al. (1995) J Bacteriology 177: 4121-4130) were prepared and used to transform and complement an E. coli strain. The araBAD promoter is induced by arabinose, repressed by glucose and is used in the art to express polynucleotides in a controlled manner.
The following experiments were performed with the Escherichia coli JC201 mutant strain, which is temperature conditional in endogenous LPAAT activity and able to grow at 30° C. but not at 44° C. (genotype plsC, described in Coleman, 1990 J. Biol. Chem., 265 (28), 17215-21.). These bacteria were kept at −80° C. as 1 ml glycerol stocks. […] Optical density was measured at 600 nm and each flask was then cultivated for 6 hours at 30 and 44° C. respectively in order to check by optical density measurement that bacterial growth occurs at 30° C. but not at 44° C. […]

Substrate in data set [2]: CCCCCCCC/C=C\CCCCCCCC(=O)SCCNC(=O)CCNC(=O)[C@H](O)C(C)(C)COP(=O)(O)OP(=O)(O)OC[C@H]1O[C@@H](n2cnc3c(N)ncnc32)[C@H](O)[C@@H]1OP(=O)(O)O
Described as above. Type of data set: biochemical, Brassica napus. Particulars: other: C18:1-CoA 0-50 μM, 10 min, 30° C., pH7.5, N = 3, pH 7.5. As to the method:
as §1
The following experiments were performed with the Escherichia coli JC201 mutant strain, which is temperature conditional in endogenous LPAAT activity and able to grow at 30° C. but not at 44° C. (genotype plsC, described in Coleman, 1990 J. Biol. Chem., 265 (28), 17215-21.). These bacteria were kept at −80° C. as 1 ml glycerol stocks. For E. coli JC201 transformation, one glycerol stock was diluted in 15 mL of Luria-Bertani (ref. L3022, Sigma) liquid medium and cultivated overnight at 30° C. Then, 1 mL was used to inoculate flasks containing 15 mL of fresh liquid LB medium. Optical density was measured at 600 nm and each flask was then cultivated for 6 hours at 30 and 44° C. respectively in order to check by optical density measurement that bacterial growth occurs at 30° C. but not at 44° C. One of the cultures obtained at 30° C. was then centrifuged at 4500 g/4° C. for 10 min. Supernatant was discarded and the pellet was kept on ice for 2 hours. The pellet was washed three time with 15 mL sterile distilled water and then twice with 15 mL distilled sterile water containing 10% (weight/volume) glycerol (centrifugation condition: 4500 g/4° C./10 min). […]

Data set [3] is described as follows: LPAAT assay with C18:1-CoA as substrate (microsomes of transformed E. coli). The class given is biochemical. Particulars: expressed in transformed E. coli mutant strains; FIG. 1. As to the method:
The ^3H-oleoyl-lysophosphatidic acid (^3HLPA, ref. NET1100; 600 μM, 28 mCi mmol^−1) and ^14C-Oleoyl-CoA (^14CC18:1-CoA, ref. NET651A; 300 μM, 11 mCi mmol^−1) radio-labeled substrates were purchased from Perkin Elmer. Assays were carried out in a final volume of 300 μl and contained Tris/HCl (100 mM, pH7.5), Triton X-100 (0.01% w/v), BSA (1 mg/ml), ascorbic acid (10 mM), EDTA (2 mM), 100 μl LPA and 50 μl acyl-CoA. The reaction was started by the addition of 30 μl of microsomes, and conducted in a glass vial placed in a Eppendorf Thermomixer-compact apparatus (30° C., 350 rpm). The reaction was stopped after incubation (from 0 to 120 min) by addition of 720 μl of chloroform/methanol (1:1). […]
(§2) Radioactivity measurement was performed in 10 mL Ultimagold (ref. 6013329, Perkin Elmer) using a liquid scintillation analyzer (Tri-Carb 2100TR, Packard) for determination of ^3H and ^14C separately.
A first LPAAT assay was performed as described above in order to determine optimal LPAAT activity using ^14CC18:1-CoA as substrate: • Effect of incubation time was tested for 0, 1, 3, 5, 10, 30, 60 and 120 min with 50 μM ^14CC18:1-CoA at 30° C. • In order to determine LPAAT kinetic parameters, the effect of C18:1-CoA concentration was tested as described above. […] For all experimental conditions, the mean of 2 values is calculated. […]

Data set [4] is described as follows: Competitive LPAAT assay using C18:1-CoA and C19CA-CoA. Type of data set: biochemical. As to the method:
The ^3H-oleoyl-lysophosphatidic acid (^3HLPA, ref. NET1100; 600 μM, 28 mCi mmol^−1) and ^14C-Oleoyl-CoA (^14CC18:1-CoA, ref. NET651A; 300 μM, 11 mCi mmol^−1) radio-labeled substrates were purchased from Perkin Elmer. Assays were carried out in a final volume of 300 μl and contained Tris/HCl (100 mM, pH7.5), Triton X-100 (0.01% w/v), BSA (1 mg/ml), ascorbic acid (10 mM), EDTA (2 mM), 100 μl LPA and 50 μl acyl-CoA. The reaction was started by the addition of 30 μl of microsomes, and conducted in a glass vial placed in a Eppendorf Thermomixer-compact apparatus (30° C., 350 rpm). The reaction was stopped after incubation (from 0 to 120 min) by addition of 720 μl of chloroform/methanol (1:1). To separate the phases, 280 μl of 1M KCl in 0.2 M H3PO4 were added and the whole mixture was vortexed for 10 s before centrifugation at 1300 g, 5 min at room temperature. The upper aqueous phase was discarded and 2×25 μl of the remaining organic phase was spotted on to silica gel 60 ÅF254 TLC plates (ref. 1.05715, Merck) and developed in chloroform/methanol/NH4OH/water (65:25:0.9:3). The phosphatidic acid spot was visualized by iodine revelation and collected for scintillation counting.
as §2
[…] For all experimental conditions, data are derived from three experiments with 4 replicates each.
LPAAT selectivity for the two substrates is calculated as follows:
Selectivity for C18:1-CoA: S^C18:1-CoA=^14C/^3H
Selectivity for C19CA-CoA: S^C19:1CA-CoA=(^3H—^14C)/^3H
in which, ^3H and ^14C are the molar quantity of produced PA and the molar quantity of ^14C18:1 incorporated into this PA. These molar quantities are calculated from the corresponding ^3H and ^14C radioactivity levels measured in the phosphatidic acid spots scraped from TLC plates. Selectivity is expressed as the fraction of the specific fatty acid incorporated out of the total incorporated at the sn-2 position.

On to `CCCCCCCC/C=C\CCCCCCCC(=O)SCCNC(=O)CCNC(=O)[C@H](O)C(C)(C)COP(=O)(O)OP(=O)(O)OC[C@H]1O[C@@H](n2cnc3c(N)ncnc32)[C@H](O)[C@@H]1OP(=O)(O)O` [C18:1-CoA, Oleoyl-CoA], for which the Km in data set [1] came out at 7.3 ± 4.1 µM. Further, the maximum rate (Vmax) in data set [1] (apparent Vmax, per mg total protein) is listed as 1557 ± 616 pmol · mg prot^−1 · min^−1.

B1: Brassica napus LPAAT (BnLPAAT, RAT1), SEQ ID No 5 (Brassica napus) (protein)
chain: MAMAAAVIVPLGILFFISGLVVNLLQAVCYVLVRPLSKNTYRKINRVVAETLWLELVWIVDWWAGVKIQVFADDETFNRMGKEHALVVCNHRSDIDWLVGWILAQRSGCLGSALAVMKKSSKFLPVIGWSMWFSEYLFLERNWAKDESTLKSGLQRLNDFPRPFWLALFVEGTRFTEAKLKAAQEYAASSELPVPRNVLIPRTKGFVSAVSNMRSFVPAIYDMTVAIPKTSPPPTMLRLFKGQPSVVHVHIKCHSMKDLPESEDEIAQWCRDQFVTKDALLDKHIAADTFAGQKEQNIGRPIKSLAVVLSWACLLTLGAMKFLHWSNLFSSWKGIALSALGLGIITLCMQILIRSSQSERSTPAKVAPAKPKDNHQSGPSSQTEVEEKQK
In the case of B1, in data set [2], the Km came out at 10.6 ± 6.7 µM and the Vmax came out at 0.0056 µmol/min/mg. Also, in data set [3], the “esterification of 14C-C18:1-CoA on 3H-LPA (presence of PA in lipid fraction)” value is “fully functional”. Moreover, the “use of C19CA-CoA as substrate” value in data set [4] (competitive assays using C19CA-CoA and C18:1-CoA) is given as “can use C19CA-CoA as substrate”. Further, the “selectivity for C19CA-CoA (in words)” value in data set [4] (very little incorporation of 19:0CA up to 50 μM) is recorded as “very low selectivity”.
